Data on one protein can be found in article PMC4351158 (Structure (London, England : 1993), 2015).

The data set deals with the molecule itself. The data set is described as follows: crystal structure.

B1: wild-type DegS (residues 27-355, without the membrane anchor) (enzyme, E. coli, UniProt P0AEE3 27-355, looked up)
chain: RSLNPLSTPQFDSTDETPASYNLAVRRAAPAVVNVYNRGLNTNSHNQLEIRTLGSGVIMDQRGYIITNKHVINDADQIIVALQDGRVFEALLVGSDSLTDLAVLKINATGGLPTIPINARRVPHIGDVVLAIGNPYNLGQTITQGIISATGRIGLNPTGRQNFLQTDASINHGNSGGALVNSLGELMGINTLSFDKSNDGETPEGIGFAIPFQLATKIMDKLIRDGRVIRGYIGIGGREIAPLHAQGGGIDQLQGIVVNEVSPDGPAANAGIQVNDLIISVDNKPAISALETMDQVAEIRPGSVIPVVVMRDDKQLTLQVTIQEYPATN
As for B1, the binding result is “binds”.
